Measured values: patent US12630600B2 (MEDIMMUNE LIMITED, priority 2022, dated 2026)
Starred links: 1 amine or outer side, 2 acyl side, 3 side chain; linkers in the order of their positions; H or OH if unused. Non-standard residues stand in square brackets, D forms with d. Groups on a side chain read outwards from the residue. Primed or numbered codes have the meaning given here. No end group written: not given here. *: point of attachment. C20 diacid = O=C(O)CCCCCCCCCCCCCCCCCCC(=O)*; C18 diacid = O=C(O)CCCCCCCCCCCCCCCCC(=O)*; γGlu = O=C(O)[C@H](CCC(=O)[*:2])N[*:1]; Palmitoyl = CCCCCCCCCCCCCCCC(=O)*; αMeF = C[C@](N)(Cc1ccccc1)C(=O)O; Myristoyl = CCCCCCCCCCCCCC(=O)*; PEG2′ = polyethylene glycol 2; αMeS = C[C@](N)(CO)C(=O)O; AEEA = NCCOCCOCC(=O)O; Aib = CC(C)(N)C(=O)O

B1: Peptide 461 (peptide)
peptide: H[Aib]QGTFTSDVSK[αMeF]LDRK([AEEA-AEEA-γGlu-C18 diacid])RAQDFVRWLLAE-NH2
modifications: N-terminus assumed
SMILES: CC(C)C[C@H](NC(=O)[C@H](CC(C)C)NC(=O)[C@H](Cc1c[nH]c2ccccc12)NC(=O)[C@H](CCCNC(=N)N)NC(=O)[C@@H](NC(=O)[C@H](Cc1ccccc1)NC(=O)[C@H](CC(=O)O)NC(=O)[C@H](CCC(N)=O)NC(=O)[C@H](C)NC(=O)[C@H](CCCNC(=N)N)NC(=O)[C@H](CCCCNC(=O)COCCOCCNC(=O)COCCOCCNC(=O)CC[C@H](NC(=O)CCCCCCCCCCCCCCCCC(=O)O)C(=O)O)NC(=O)[C@H](CCCNC(=N)N)NC(=O)[C@H](CC(=O)O)NC(=O)[C@H](CC(C)C)NC(=O)[C@](C)(Cc1ccccc1)NC(=O)[C@H](CCCCN)NC(=O)[C@H](CO)NC(=O)[C@@H](NC(=O)[C@H](CC(=O)O)NC(=O)[C@H](CO)NC(=O)[C@@H](NC(=O)[C@H](Cc1ccccc1)NC(=O)[C@@H](NC(=O)CNC(=O)[C@H](CCC(N)=O)NC(=O)C(C)(C)NC(=O)[C@@H](N)Cc1c[nH]cn1)[C@@H](C)O)[C@@H](C)O)C(C)C)C(C)C)C(=O)N[C@@H](C)C(=O)N[C@@H](CCC(=O)O)C(N)=O
B2: Peptide 480 (peptide)
peptide: H[Aib]QGTFTSDVSK[αMeF]LDTK([AEEA-AEEA-γGlu-C18 diacid])RARDFVQWLLE[Aib]K-NH2
modifications: N-terminus assumed
SMILES: CC(C)C[C@H](NC(=O)[C@H](Cc1c[nH]c2ccccc12)NC(=O)[C@H](CCC(N)=O)NC(=O)[C@@H](NC(=O)[C@H](Cc1ccccc1)NC(=O)[C@H](CC(=O)O)NC(=O)[C@H](CCCNC(=N)N)NC(=O)[C@H](C)NC(=O)[C@H](CCCNC(=N)N)NC(=O)[C@H](CCCCNC(=O)COCCOCCNC(=O)COCCOCCNC(=O)CC[C@H](NC(=O)CCCCCCCCCCCCCCCCC(=O)O)C(=O)O)NC(=O)[C@@H](NC(=O)[C@H](CC(=O)O)NC(=O)[C@H](CC(C)C)NC(=O)[C@](C)(Cc1ccccc1)NC(=O)[C@H](CCCCN)NC(=O)[C@H](CO)NC(=O)[C@@H](NC(=O)[C@H](CC(=O)O)NC(=O)[C@H](CO)NC(=O)[C@@H](NC(=O)[C@H](Cc1ccccc1)NC(=O)[C@@H](NC(=O)CNC(=O)[C@H](CCC(N)=O)NC(=O)C(C)(C)NC(=O)[C@@H](N)Cc1c[nH]cn1)[C@@H](C)O)[C@@H](C)O)C(C)C)[C@@H](C)O)C(C)C)C(=O)N[C@@H](CC(C)C)C(=O)N[C@@H](CCC(=O)O)C(=O)NC(C)(C)C(=O)N[C@@H](CCCCN)C(N)=O
B3: Peptide 489 (peptide)
peptide: H[Aib]QGTFTSDVSK[αMeF]LDTK([AEEA-AEEA-γGlu-C18 diacid])RARDFVQWLL[Aib]TE-NH2
modifications: N-terminus assumed
SMILES: CC(C)C[C@H](NC(=O)[C@H](Cc1c[nH]c2ccccc12)NC(=O)[C@H](CCC(N)=O)NC(=O)[C@@H](NC(=O)[C@H](Cc1ccccc1)NC(=O)[C@H](CC(=O)O)NC(=O)[C@H](CCCNC(=N)N)NC(=O)[C@H](C)NC(=O)[C@H](CCCNC(=N)N)NC(=O)[C@H](CCCCNC(=O)COCCOCCNC(=O)COCCOCCNC(=O)CC[C@H](NC(=O)CCCCCCCCCCCCCCCCC(=O)O)C(=O)O)NC(=O)[C@@H](NC(=O)[C@H](CC(=O)O)NC(=O)[C@H](CC(C)C)NC(=O)[C@](C)(Cc1ccccc1)NC(=O)[C@H](CCCCN)NC(=O)[C@H](CO)NC(=O)[C@@H](NC(=O)[C@H](CC(=O)O)NC(=O)[C@H](CO)NC(=O)[C@@H](NC(=O)[C@H](Cc1ccccc1)NC(=O)[C@@H](NC(=O)CNC(=O)[C@H](CCC(N)=O)NC(=O)C(C)(C)NC(=O)[C@@H](N)Cc1c[nH]cn1)[C@@H](C)O)[C@@H](C)O)C(C)C)[C@@H](C)O)C(C)C)C(=O)N[C@@H](CC(C)C)C(=O)NC(C)(C)C(=O)N[C@H](C(=O)N[C@@H](CCC(=O)O)C(N)=O)[C@@H](C)O
B4: Peptide 140 (peptide)
peptide: H[Aib]QGTFTSDVSK[αMeF]LDTK([AEEA-AEEA-γGlu-C18 diacid])RAQDFVRWLLE[Aib]G-OH
modifications: N-terminus assumed
SMILES: CC(C)C[C@H](NC(=O)[C@H](Cc1c[nH]c2ccccc12)NC(=O)[C@H](CCCNC(=N)N)NC(=O)[C@@H](NC(=O)[C@H](Cc1ccccc1)NC(=O)[C@H](CC(=O)O)NC(=O)[C@H](CCC(N)=O)NC(=O)[C@H](C)NC(=O)[C@H](CCCNC(=N)N)NC(=O)[C@H](CCCCNC(=O)COCCOCCNC(=O)COCCOCCNC(=O)CC[C@H](NC(=O)CCCCCCCCCCCCCCCCC(=O)O)C(=O)O)NC(=O)[C@@H](NC(=O)[C@H](CC(=O)O)NC(=O)[C@H](CC(C)C)NC(=O)[C@](C)(Cc1ccccc1)NC(=O)[C@H](CCCCN)NC(=O)[C@H](CO)NC(=O)[C@@H](NC(=O)[C@H](CC(=O)O)NC(=O)[C@H](CO)NC(=O)[C@@H](NC(=O)[C@H](Cc1ccccc1)NC(=O)[C@@H](NC(=O)CNC(=O)[C@H](CCC(N)=O)NC(=O)C(C)(C)NC(=O)[C@@H](N)Cc1c[nH]cn1)[C@@H](C)O)[C@@H](C)O)C(C)C)[C@@H](C)O)C(C)C)C(=O)N[C@@H](CC(C)C)C(=O)N[C@@H](CCC(=O)O)C(=O)NC(C)(C)C(=O)NCC(=O)O
B5: Peptide 463 (peptide)
peptide: H[Aib]QGTFTSDVSK[αMeF]LDSK([AEEA-AEEA-γGlu-γGlu-C18 diacid])RAQDFVQWLL[Aib]T-NH2
modifications: N-terminus assumed
SMILES: CC(C)C[C@H](NC(=O)[C@H](Cc1c[nH]c2ccccc12)NC(=O)[C@H](CCC(N)=O)NC(=O)[C@@H](NC(=O)[C@H](Cc1ccccc1)NC(=O)[C@H](CC(=O)O)NC(=O)[C@H](CCC(N)=O)NC(=O)[C@H](C)NC(=O)[C@H](CCCNC(=N)N)NC(=O)[C@H](CCCCNC(=O)COCCOCCNC(=O)COCCOCCNC(=O)CC[C@H](NC(=O)CC[C@H](NC(=O)CCCCCCCCCCCCCCCCC(=O)O)C(=O)O)C(=O)O)NC(=O)[C@H](CO)NC(=O)[C@H](CC(=O)O)NC(=O)[C@H](CC(C)C)NC(=O)[C@](C)(Cc1ccccc1)NC(=O)[C@H](CCCCN)NC(=O)[C@H](CO)NC(=O)[C@@H](NC(=O)[C@H](CC(=O)O)NC(=O)[C@H](CO)NC(=O)[C@@H](NC(=O)[C@H](Cc1ccccc1)NC(=O)[C@@H](NC(=O)CNC(=O)[C@H](CCC(N)=O)NC(=O)C(C)(C)NC(=O)[C@@H](N)Cc1c[nH]cn1)[C@@H](C)O)[C@@H](C)O)C(C)C)C(C)C)C(=O)N[C@@H](CC(C)C)C(=O)NC(C)(C)C(=O)N[C@H](C(N)=O)[C@@H](C)O
B6: Peptide 511 (peptide)
peptide: H[Aib]QGTFTSDVSK[αMeF]LDTK([AEEA-AEEA-γGlu-C20 diacid])RARDFVRWLL[Aib]E-NH2
modifications: N-terminus assumed
SMILES: CC(C)C[C@H](NC(=O)[C@H](Cc1c[nH]c2ccccc12)NC(=O)[C@H](CCCNC(=N)N)NC(=O)[C@@H](NC(=O)[C@H](Cc1ccccc1)NC(=O)[C@H](CC(=O)O)NC(=O)[C@H](CCCNC(=N)N)NC(=O)[C@H](C)NC(=O)[C@H](CCCNC(=N)N)NC(=O)[C@H](CCCCNC(=O)COCCOCCNC(=O)COCCOCCNC(=O)CC[C@H](NC(=O)CCCCCCCCCCCCCCCCCCC(=O)O)C(=O)O)NC(=O)[C@@H](NC(=O)[C@H](CC(=O)O)NC(=O)[C@H](CC(C)C)NC(=O)[C@](C)(Cc1ccccc1)NC(=O)[C@H](CCCCN)NC(=O)[C@H](CO)NC(=O)[C@@H](NC(=O)[C@H](CC(=O)O)NC(=O)[C@H](CO)NC(=O)[C@@H](NC(=O)[C@H](Cc1ccccc1)NC(=O)[C@@H](NC(=O)CNC(=O)[C@H](CCC(N)=O)NC(=O)C(C)(C)NC(=O)[C@@H](N)Cc1c[nH]cn1)[C@@H](C)O)[C@@H](C)O)C(C)C)[C@@H](C)O)C(C)C)C(=O)N[C@@H](CC(C)C)C(=O)NC(C)(C)C(=O)N[C@@H](CCC(=O)O)C(N)=O
B7: Peptide 35 (peptide)
peptide: H[Aib]QGTFTSDVSK[αMeF]LDTK([AEEA-AEEA-γGlu-C18 diacid])RAQDFVQWLL[Aib]T-OH
modifications: N-terminus assumed
SMILES: CC(C)C[C@H](NC(=O)[C@H](Cc1c[nH]c2ccccc12)NC(=O)[C@H](CCC(N)=O)NC(=O)[C@@H](NC(=O)[C@H](Cc1ccccc1)NC(=O)[C@H](CC(=O)O)NC(=O)[C@H](CCC(N)=O)NC(=O)[C@H](C)NC(=O)[C@H](CCCNC(=N)N)NC(=O)[C@H](CCCCNC(=O)COCCOCCNC(=O)COCCOCCNC(=O)CC[C@H](NC(=O)CCCCCCCCCCCCCCCCC(=O)O)C(=O)O)NC(=O)[C@@H](NC(=O)[C@H](CC(=O)O)NC(=O)[C@H](CC(C)C)NC(=O)[C@](C)(Cc1ccccc1)NC(=O)[C@H](CCCCN)NC(=O)[C@H](CO)NC(=O)[C@@H](NC(=O)[C@H](CC(=O)O)NC(=O)[C@H](CO)NC(=O)[C@@H](NC(=O)[C@H](Cc1ccccc1)NC(=O)[C@@H](NC(=O)CNC(=O)[C@H](CCC(N)=O)NC(=O)C(C)(C)NC(=O)[C@@H](N)Cc1c[nH]cn1)[C@@H](C)O)[C@@H](C)O)C(C)C)[C@@H](C)O)C(C)C)C(=O)N[C@@H](CC(C)C)C(=O)NC(C)(C)C(=O)N[C@H](C(=O)O)[C@@H](C)O

Target: human GLP-1 receptor (human, UniProt P43220)
Assay: cell-based or functional assay

Point of comparison: B3, “cAMP production EC50” value 22.8 pM. Against it:
- B1 — 7.3-fold higher, 167 pM
- H[αMeS]QGS[αMeF]TSDVSKILDSK([PEG2′-PEG2′-γGlu-Palmitoyl])AAQD[αMeF]VQ[Aib]IINT-NH2 [Peptide 134] — 39-fold lower, 0.592 pM
- B2 — 1.8-fold lower, 12.6 pM
- H[αMeS]QGS[αMeF]TSDVSKILDSK([PEG2′-PEG2′-γGlu-Myristoyl])AAQD[αMeF]VQ[Aib]IINT-NH2 [Peptide 135] — 56-fold lower, 0.407 pM
- B4 — within 1.5-fold, 22.7 pM
- B5 — 12-fold higher, 274 pM
- B6 — 5.2-fold higher, 118 pM

Target: human glucagon receptor (human, UniProt P47871)
Assay: cell-based or functional assay

Point of comparison: H[αMeS]QGS[αMeF]TSDVSKILDSK([PEG2′-PEG2′-γGlu-Palmitoyl])AAQD[αMeF]VQ[Aib]IINT-NH2 [Peptide 134], “cAMP production EC50” value 15 pM. Against it:
- H[Aib]QGTFTSDVSK[αMeF]LDTK([AEEA-AEEA-γGlu-γGlu-C20 diacid])RARDFVQWLLE[Aib]G-NH2 [Peptide 458] — 26-fold higher, 385 pM
- H[αMeS]QGS[αMeF]TSDVSKILDSK([PEG2′-PEG2′-γGlu-Myristoyl])AAQD[αMeF]VQ[Aib]IINT-NH2 [Peptide 135] — the same, 15 pM
- B7 — 22-fold higher, 335 pM
